How the values were obtained:
[1] = biological target: T1, soluble human FcRn (human, UniProt P55899 24-297; P61769 21-119); assay: SPR (Biacore), pH 7.0, 25 C;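 also: antibodies captured on a protein L-coated CM4 chip with human FcRn injected as analyte, KD obtained from ka and kd fitted to sensorgrams, in sodium phosphate buffer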
T1 construct: Heterodimer of alpha chain and beta2-microglobulin; also called hFcRn
Procedure: An appropriate amount of protein L (ACTIGEN) was immobilized onto Sensor chip CM4 (GE Healthcare) by the amino coupling method, and the chip was allowed to capture an antibody of interest. Then, diluted FcRn solutions and running buffer (as a reference solution) were injected to allow human FcRn to interact with the antibody captured on the sensor chip. The running buffer used comprised 50 mmol/l sodium phosphate, 150 mmol/l NaCl, and 0.05% (w/v) Tween20 (pH 7.0). FcRn was diluted using each buffer. The chip was regenerated using 10 mmol/l glycine-HCl (pH 1.5). Assays were carried out exclusively at 25 degrees C. The association rate constant ka (1/Ms) and dissociation rate constant kd (1/s), both of which are kinetic parameters, were calculated based on the sensorgrams obtained in the assays, and KD (M) of each antibody for human FcRn was determined from these values. Each parameter was calculated using Biacore T100 Evaluation Software (GE Healthcare).

[2] = biological target: T1, soluble human FcRn; assay: SPR (Biacore), pH 7.0

T1 sequence (P55899 24-297 limits assumed, chain 1 of 2): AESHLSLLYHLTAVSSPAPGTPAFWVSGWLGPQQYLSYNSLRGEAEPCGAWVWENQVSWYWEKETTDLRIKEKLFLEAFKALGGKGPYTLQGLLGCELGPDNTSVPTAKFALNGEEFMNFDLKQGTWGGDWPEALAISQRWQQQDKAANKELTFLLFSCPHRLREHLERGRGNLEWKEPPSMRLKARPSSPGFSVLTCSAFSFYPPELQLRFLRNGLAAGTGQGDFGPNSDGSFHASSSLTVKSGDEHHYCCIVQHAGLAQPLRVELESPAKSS
T1 sequence (P61769 21-119 limits assumed, chain 2 of 2): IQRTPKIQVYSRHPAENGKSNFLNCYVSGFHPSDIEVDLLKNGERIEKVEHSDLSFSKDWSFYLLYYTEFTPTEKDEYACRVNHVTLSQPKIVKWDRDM

B1: IgG1-F1370 (antibody)
heavy: QVQLQESGPGLVKPSETLSLTCAVSGHSISHDHAWSWVRQPPGEGLEWIGFISYSGITNYNPSLQGRVTISRDNSKNTLYLQMNSLRAEDTAVYYCARSLARTTAMDYWGEGTLVTVSSASTKGPSVFPLAPSSKSTSGGTAALGCLVKDYFPEPVTVSWNSGALTSGVHTFPAVLQSSGLYSLSSVVTVPSSSLGTQTYICNVNHKPSNTKVDKKVEPKSCDKTHTCPPCPAPELRGGPKVFLFPPKPKDTLYITREPEVTCVVVDVSHEDPEVKFNWYVDGVEVHNAKTKPREEQYNSTYRVVSVLTVLHQDWLNGKEYKCKVSNKALPAPIEKTISKAKGQPREPQVYTLPPSRDELTKNQVSLTCLVKGFYPSDIAVEWESNGQPENNYKTTPPVLDSDGSFFLYSKLTVDKSRWQQGNVFSCSVMHEALDYHVTKKELSLSP
light: not shown
Q: Which Kd [1] does the source give for B1 here?
A: 91 nM

Q: What about the Kd [2] of the same binder?
A: 91 nM

B2: IgG1-F1419 (antibody)
heavy: QVQLQESGPGLVKPSETLSLTCAVSGHSISHDHAWSWVRQPPGEGLEWIGFISYSGITNYNPSLQGRVTISRDNSKNTLYLQMNSLRAEDTAVYYCARSLARTTAMDYWGEGTLVTVSSASTKGPSVFPLAPSSKSTSGGTAALGCLVKDYFPEPVTVSWNSGALTSGVHTFPAVLQSSGLYSLSSVVTVPSSSLGTQTYICNVNHKPSNTKVDKKVEPKSCDKTHTCPPCPAPELRGGPKVFLFPPKPKDTLYISRTPEVTCVVVDVSHEDPEVKFNWYVDGVEVHNAKTKPREEQYNSTYRVVSVLTVLHQDWLNGKEYKCKVSNKALPAPIEKTISKAKGQPREPQVYTLPPSRDELTKNQVSLTCLVKGFYPSDIAVEWESNGQPENNYKTTPPVLDSDGSFFLYSKLTVDKSRWQQGNVFSCSVMHEALDWHVTRKELSLSP
light: not shown
Q: How did the Kd [1] turn out when B2 was run?
A: 150 nM

Q: And the Kd [2]?
A: 150 nM

B3: IgG1-F1413 (antibody)
heavy: QVQLQESGPGLVKPSETLSLTCAVSGHSISHDHAWSWVRQPPGEGLEWIGFISYSGITNYNPSLQGRVTISRDNSKNTLYLQMNSLRAEDTAVYYCARSLARTTAMDYWGEGTLVTVSSASTKGPSVFPLAPSSKSTSGGTAALGCLVKDYFPEPVTVSWNSGALTSGVHTFPAVLQSSGLYSLSSVVTVPSSSLGTQTYICNVNHKPSNTKVDKKVEPKSCDKTHTCPPCPAPELRGGPKVFLFPPKPKDTLYITREPEVTCVVVDVSHEDPEVKFNWYVDGVEVHNAKTKPREEQYNSTYRVVSVLQVLHADWLNGKEYKCKVSNKALPAPIEKTISKAKGQPREPQVYTLPPSRDELTKNQVSLTCLVKGFYPSDIAVEWESNGQPENNYKTTPPVLDSDGSFFLYSKLTVDKSRWQQGNVFSCSVMHEALDYHVTKKELSLSP
light: not shown
Q: What does the source list for B3?
A: Kd [1]: 37 nM; Kd [2]: 37 nM

B4: IgG1-F1434 (antibody)
heavy: QVQLQESGPGLVKPSETLSLTCAVSGHSISHDHAWSWVRQPPGEGLEWIGFISYSGITNYNPSLQGRVTISRDNSKNTLYLQMNSLRAEDTAVYYCARSLARTTAMDYWGEGTLVTVSSASTKGPSVFPLAPSSKSTSGGTAALGCLVKDYFPEPVTVSWNSGALTSGVHTFPAVLQSSGLYSLSSVVTVPSSSLGTQTYICNVNHKPSNTKVDKKVEPKSCDKTHTCPPCPAPELRGGPKVFLFPPKPKDTLYISREPEVTCVVVDVSHEDPEVKFNWYVDGVEVHNAKTKPREEQYNSTYRVVSVLEPLHQDWLNGKEYKCKVSNKALPAPIEKTISKAKGQPREPQVYTLPPSRDELTKNQVSLTCLVKGFYPSDIAVEWESNGQPENNYKTTPPVLDSDGSFFLYSKLTVDKSRWQQGNVFSCSVMHEALDYHVTRKELSLSP
light: not shown
Q: Which Kd [1] does the source give for B4 here?
A: 36 nM

B5: IgG1-F1371 (antibody)
heavy: QVQLQESGPGLVKPSETLSLTCAVSGHSISHDHAWSWVRQPPGEGLEWIGFISYSGITNYNPSLQGRVTISRDNSKNTLYLQMNSLRAEDTAVYYCARSLARTTAMDYWGEGTLVTVSSASTKGPSVFPLAPSSKSTSGGTAALGCLVKDYFPEPVTVSWNSGALTSGVHTFPAVLQSSGLYSLSSVVTVPSSSLGTQTYICNVNHKPSNTKVDKKVEPKSCDKTHTCPPCPAPELRGGPKVFLFPPKPKDTLYITREPEVTCVVVDVSHEDPEVKFNWYVDGVEVHNAKTKPREEQYNSTYRVVSVLTVLHQDWLNGKEYKCKVSNKALPAPIEKTISKAKGQPREPQVYTLPPSRDELTKNQVSLTCLVKGFYPSDIAVEWESNGQPENNYKTTPPVLDSDGSFFLYSKLTVDKSRWQQGNVFSCSVMHEALDYHVTRKELSLSP
light: not shown
Q: What does the source list for B5?
A: Kd [1]: 110 nM; Kd [2]: 110 nM

B6: IgG1-F1378 (antibody)
heavy: QVQLQESGPGLVKPSETLSLTCAVSGHSISHDHAWSWVRQPPGEGLEWIGFISYSGITNYNPSLQGRVTISRDNSKNTLYLQMNSLRAEDTAVYYCARSLARTTAMDYWGEGTLVTVSSASTKGPSVFPLAPSSKSTSGGTAALGCLVKDYFPEPVTVSWNSGALTSGVHTFPAVLQSSGLYSLSSVVTVPSSSLGTQTYICNVNHKPSNTKVDKKVEPKSCDKTHTCPPCPAPELRGGPKVFLFPPKPKDTLYISRTPEVTCVVVDVSHEDPEVKFNWYVDGVEVHNAKTKPREEQYNSTYRVVSVLTVLHQDWLNGKEYKCKVSNKALPAPIEKTISKAKGQPREPQVYTLPPSRDELTKNQVSLTCLVKGFYPSDIAVEWESNGQPENNYKTTPPVLDSDGSFFLYSKLTVDKSRWQQGNVFSCSVMHEALHYHTTQKSLSLSP
light: not shown
Q: B6 was tested. Which Kd [1] did it give?
A: 360 nM

Q: What about the Kd [2] of the same binder?
A: 360 nM

B7: IgG1-F1428 (antibody)
heavy: QVQLQESGPGLVKPSETLSLTCAVSGHSISHDHAWSWVRQPPGEGLEWIGFISYSGITNYNPSLQGRVTISRDNSKNTLYLQMNSLRAEDTAVYYCARSLARTTAMDYWGEGTLVTVSSASTKGPSVFPLAPSSKSTSGGTAALGCLVKDYFPEPVTVSWNSGALTSGVHTFPAVLQSSGLYSLSSVVTVPSSSLGTQTYICNVNHKPSNTKVDKKVEPKSCDKTHTCPPCPAPELRGGPKVFLFPPKPKDTLYISREPEVTCVVVDVSHEDPEVKFNWYVDGVEVHNAKTKPREEQYNSTYRVVEVLTPLHQDWLNGKEYKCKVSNKALPAPIEKTISKAKGQPREPQVYTLPPSRDELTKNQVSLTCLVKGFYPSDIAVEWESNGQPENNYKTTPPVLDSDGSFFLYSKLTVDKSRWQQGNVFSCSVMHEALDYHVTRKELSLSP
light: not shown
Q: How did the Kd [1] turn out when B7 was run?
A: 15 nM

B8: IgG1-F1416 (antibody)
heavy: QVQLQESGPGLVKPSETLSLTCAVSGHSISHDHAWSWVRQPPGEGLEWIGFISYSGITNYNPSLQGRVTISRDNSKNTLYLQMNSLRAEDTAVYYCARSLARTTAMDYWGEGTLVTVSSASTKGPSVFPLAPSSKSTSGGTAALGCLVKDYFPEPVTVSWNSGALTSGVHTFPAVLQSSGLYSLSSVVTVPSSSLGTQTYICNVNHKPSNTKVDKKVEPKSCDKTHTCPPCPAPELRGGPKVFLFPPKPKDTLYITREPEVTCVVVDVSHEDPEVKFNWYVDGVEVHNAKTKPREEQYNSTYRVVSVLTPLHQDWLNGKEYKCKVSNKALPAPIEKTISKAKGQPREPQVYTLPPSRDELTKNQVSLTCLVKGFYPSDIAVEWESNGQPENNYKTTPPVLDSDGSFFLYSKLTVDKSRWQQGNVFSCSVMHEALDYHVTKKELSLSP
light: not shown
Q: What does the source list for B8?
A: Kd [1]: 13 nM; Kd [2]: 13 nM

B9: IgG1-F1426 (antibody)
heavy: QVQLQESGPGLVKPSETLSLTCAVSGHSISHDHAWSWVRQPPGEGLEWIGFISYSGITNYNPSLQGRVTISRDNSKNTLYLQMNSLRAEDTAVYYCARSLARTTAMDYWGEGTLVTVSSASTKGPSVFPLAPSSKSTSGGTAALGCLVKDYFPEPVTVSWNSGALTSGVHTFPAVLQSSGLYSLSSVVTVPSSSLGTQTYICNVNHKPSNTKVDKKVEPKSCDKTHTCPPCPAPELRGGPKVFLFPPKPKDTLYISREPEVTCVVVDVSHEDPEVKFNWYVDGVEVHNAKTKPREEQYNSTYRVESVLTPLHQDWLNGKEYKCKVSNKALPAPIEKTISKAKGQPREPQVYTLPPSRDELTKNQVSLTCLVKGFYPSDIAVEWESNGQPENNYKTTPPVLDSDGSFFLYSKLTVDKSRWQQGNVFSCSVMHEALDYHVTRKELSLSP
light: not shown
Q: For B9, which Kd [1] is on record?
A: 18 nM

B10: IgG1-F1379 (antibody)
heavy: QVQLQESGPGLVKPSETLSLTCAVSGHSISHDHAWSWVRQPPGEGLEWIGFISYSGITNYNPSLQGRVTISRDNSKNTLYLQMNSLRAEDTAVYYCARSLARTTAMDYWGEGTLVTVSSASTKGPSVFPLAPSSKSTSGGTAALGCLVKDYFPEPVTVSWNSGALTSGVHTFPAVLQSSGLYSLSSVVTVPSSSLGTQTYICNVNHKPSNTKVDKKVEPKSCDKTHTCPPCPAPELRGGPKVFLFPPKPKDTLYISRTPEVTCVVVDVSHEDPEVKFNWYVDGVEVHNAKTKPREEQYNSTYRVVSVLTVLHQDWLNGKEYKCKVSNKALPAPIEKTISKAKGQPREPQVYTLPPSRDELTKNQVSLTCLVKGFYPSDIAVEWESNGQPENNYKTTPPVLDSDGSFFLYSKLTVDKSRWQQGNVFSCSVMHEALHYHFTQKSLSLSP
light: not shown
Q: Which Kd [1] does the source give for B10 here?
A: 280 nM

Q: And the Kd [2]?
A: 280 nM

B11: IgG1-F1433 (antibody)
heavy: QVQLQESGPGLVKPSETLSLTCAVSGHSISHDHAWSWVRQPPGEGLEWIGFISYSGITNYNPSLQGRVTISRDNSKNTLYLQMNSLRAEDTAVYYCARSLARTTAMDYWGEGTLVTVSSASTKGPSVFPLAPSSKSTSGGTAALGCLVKDYFPEPVTVSWNSGALTSGVHTFPAVLQSSGLYSLSSVVTVPSSSLGTQTYICNVNHKPSNTKVDKKVEPKSCDKTHTCPPCPAPELRGGPKVFLFPPKPKDTLYISREPEVTCVVVDVSHEDPEVKFNWYVDGVEVHNAKTKPREEQYNSTYRVVSVLDPLHQDWLNGKEYKCKVSNKALPAPIEKTISKAKGQPREPQVYTLPPSRDELTKNQVSLTCLVKGFYPSDIAVEWESNGQPENNYKTTPPVLDSDGSFFLYSKLTVDKSRWQQGNVFSCSVMHEALDYHVTRKELSLSP
light: not shown
Q: How did the Kd [1] turn out when B11 was run?
A: 45 nM

B12: IgG1-F1430 (antibody)
heavy: QVQLQESGPGLVKPSETLSLTCAVSGHSISHDHAWSWVRQPPGEGLEWIGFISYSGITNYNPSLQGRVTISRDNSKNTLYLQMNSLRAEDTAVYYCARSLARTTAMDYWGEGTLVTVSSASTKGPSVFPLAPSSKSTSGGTAALGCLVKDYFPEPVTVSWNSGALTSGVHTFPAVLQSSGLYSLSSVVTVPSSSLGTQTYICNVNHKPSNTKVDKKVEPKSCDKTHTCPPCPAPELRGGPKVFLFPPKPKDTLYISREPEVTCVVVDVSHEDPEVKFNWYVDGVEVHNAKTKPREEQYNSTYRVVSELTPLHQDWLNGKEYKCKVSNKALPAPIEKTISKAKGQPREPQVYTLPPSRDELTKNQVSLTCLVKGFYPSDIAVEWESNGQPENNYKTTPPVLDSDGSFFLYSKLTVDKSRWQQGNVFSCSVMHEALDYHVTRKELSLSP
light: not shown
Q: For B12, which Kd [1] is on record?
A: 31 nM
